Test results reported in patent US10702610B2, “Method of making sulfur-containing polymers from hexahydrotriazine and dithiol precursors” (International Business Machines Corporation, priority 2015, dated 2020).
No end group written: not given here.

How the values were obtained:
[1] = test system: human embryonic kidney cells from cell line HEK293; assay: incubation with HEK293 cells, cell viability; type: cell-based
Experimental: (§1) To investigate toxicity of the polymer-peptide product, the polymer-peptide product was dissolved in a simulated physiological environment comprising 10% prenatal bovine serum in a phosphate-buffered saline solution. […] The polymer-peptide products was also incubated with human embryonic kidney cells from cell line HEK293 for 24 hours, after which more than 90% cell viability was observed.

[2] = dissolution in simulated physiological environment (10% prenatal bovine serum in phosphate-buffered saline), precipitation/aggregation; type: physicochemical; details: over 24 hours
Experimental: as §1

hemolysis = type: cell-based; details: doses up to 1000 mg/L
Experimental: as §1

In the case of “peptide: thiol-containing amphiphilic alpha-helical peptide SEQ. ID: NO: 1-NH2 (CLLKKLLKKC-NH2; cysteine pairing not given here) [reference compound]”, the cell viability ([1]; HEK293, dose of 50 mg/L) is reported as “below 70%”.

With “polymer-peptide product: peptide SEQ. ID: NO: 1-NH2 attached to water-soluble polythioaminal polymer 4a (CLLKKLLKKC-NH2; cysteine pairing not given here; also: attached to polythioaminal polymer 4a)” the “precipitation or aggregation in solution” value [2] was “No precipitation or aggregation was observed”, the cell viability ([1]; HEK293, 200 mg/L, similar incubation period) was “more than 80%” and the cell viability ([1]; HEK293, incubated 24 hours, dose not stated) was “more than 90%”. The hemolysis (hemolysis) was “No hemolysis was observed”.
